The data set can be described thus: soluble fraction after stress (log2 fold change); higher = more stays soluble; pooled small domains, quantitative proteomics. Particulars: stress: 50 degC. A digest of the protocol:
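Quantitative proteomics served as the high-throughput read-out for pooled custom libraries of small protein domains. Each was stressed at 50°C. Aggregation propensity is expressed as the base-two log fold change in soluble protein after stress. A higher value means a larger share of the protein remains in solution.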
In the case of “HMHESLAEVAARKLRALIVTGELAPGERVTEAGLTDLLEISRTPAREAIRILSSEGLLVVFPNRGAEVV”, the “soluble fraction (log2)” value was -0.822. Next, “HMHEYSDIEHRILDAAREVFIRKGYDSATMGDIALLAGMSRTSVNYYFRNKERLFEAIFEEII”: -2.08; “HMHFDQILAHAMDERGMNAVQLASLTGLSSGAISRYLAGDRQPTVYSIQQIAKALGVSADYLVG”: -0.884; “HMHGEAEFLDATAVVMEKLNPGGLVKIKGEIWQAVSKDGHTIQEGEKVRVFERQGITLLVGHF”: -0.171. The same measure for “HMHGTIHSAAYGGDIEAVKKFLAAGADVNANGGGRTPLDLAIQVKNTEIADLLRKHGGKTGDELKA”: 0.0271; for “HMHGYLSDPAARLIRARRKTLSIRITQEGNLEIRAPLGMPKGEIEAFLKEKAQWIETHRAKVLAEYA”: -2.24.

Consider “HMHHDQQQITAELARIARNGLPGLTADNAIISRLDALNLLINIHDDRGADATPLRGLLPAIADELLRLT”, for which the “soluble fraction (log2)” value was -0.273.

Consider “HMHHIDTAWFRGKMREHRLTQEAVGQAIGLERSMVSKIIKGTVSFNARKASAWAQLLRVSESEILERVGI”, for which the “soluble fraction (log2)” value is -2.37. The same measure for “HMHHIDYKQLRRINPVAARRAVLDYLESTGGNITKTAQVFSINRSVVYDILKKQASGDLSDRLRIP”: -1.32; for “HMHIDQVIRERRLALGLTQEELANKIGVSAPAVSKWEKRVSYPDITLLPALARILGTDVNTLLTFS”: -0.365. “HMHIVQEGDSLYGIARQYRITVEELRSLNALETADVIVPYQKLYV”: the “soluble fraction (log2)” value is -0.942. Next, “HMHKPLRILVYEELRMLIMTGQIKPGTRMMEIDLAESMGVSRTPVREAIRQLEKDNLVTIEPRRGAYVSD”: -2.45. The same measure for “HMHKYQVGETVYYTSPTFGRAAATGSYIVVKLLPSEGDDYQYRIKSSGEAFERVAKESQLDR”: -0.734. Next, “HMHLIPRESTYEIDGRRFVVDSVNLDFGKVSLQDITFRNATGFPIFRSESIEFMRRLVEISEAQRIAEL”: -0.00889; “HMHLPDNAVSIISELKMTPEEVLELIGKLPHDFLFLPYSQRKKIIVDLIPNKDYKLLMSLIKKFML”: -1.12. In the case of “HMHLTRYQYKVETEQEAVGLKELSSVHDLQIKENEATFQADSDAIDEILKTLLLYGVKKLEATPPTLED”, the “soluble fraction (log2)” value is -0.0366.

For “HMHMSLTEKYKELTDLAVSAGVQNLNVREQDGVLYVDGDASGAVKQQLWDTYGKLDPDYTSGDLVLNI”, the “soluble fraction (log2)” value came to 0.0615.

As for “HMHNSPSPVATTILRFLQPVRAFVGDTEDMRTFGPFLREDVAMVPASQAKNLIRSGHAVEINP”, the “soluble fraction (log2)” value was -0.0361. The same measure for “HMHNSQTIIDNIKRIANEQNISLSKLAVISGLGKNTITSMTAKTNIKIETLTAIAKSLNVSIHDLTGE”: -0.0839; for “HMHPDHRTATVPDAAAGRRFDAVLAELFPQFSRSKLTTWIKSGEVLLNGEVPRPRDAVVGGETVSLNVVL”: -0.275; for “HMHPMVEAYLADLDRALSGSDPREHAETMSAVREHLADAIAPDATAEQVRHALDELGPVEAIAAG”: 0.0172. Next, “HMHPQISVEGVLPLKEAVEFVEREIISHAYSRYRATREVARHLGIDPSTVLRKAAKYGITVEPGKN”: -0.658; “HMHPRDREENKYLLLRGERIYEESIGEKRLYVEAALHKYEKALSSYDTGLIDEAKEEFKKFLEEIEEA”: -0.0765; “HMHPVEPDDPDQHILFQHLRGQDQVHIDALIRLSGWTADKVSSTLLFMELQGLVKQLPGMYYALE”: -0.0844. The same measure for “HMHQAADFAGFITFNKDGVEQFSFGKYKNQTVVSVLEKDPGYYSWIQNADFPLYTKKILTAIRLAM”: -0.577; for “HMHQALLEQSAEHAQQVKAYELLLTAERALDEENTEAFLSAMKSLKPLAENLDAKGKALYQELLPFVTEA”: -0.0088; for “HMHQAVTVTKPARLFTGPDGKGVVRSLDVGMMLYPTGEKQGMMWEVEDELGNKGWVSSTLLELS”: 0.207. Take “HMHSEEAALLHRYIDSLEEPQHTVVVMRDIGGYSFEEIASVVQLKEAHIWMILSRARRKLRELYIKTMDHH”: the “soluble fraction (log2)” value stood at 0.138. The same measure for “HMHSFFGDNIKKLRTAKKMSQEQLADIFGITKAGISYWETGRSEPNFATVQKLADFFGVTTSDLLGEA”: -0.194; for “HMHSFGLHVRNLRKKSNLTLSQLSNASGLSLSAISKIENNQISPSFINLIRLAEGLKMHIADLVTVK”: -2.13; for “HMHSGFHSAILDVDRAVKEGKTLYEALNKYPYIFDETFRSLVRAGEASGELPSILSKLALYLEEQSK”: -1.16. As to “HMHSLLDDIPNVGEKRKRILLTHFQSLEEIKAATVEELERLPQINRKAAESIYTFFHSQPIR”, the “soluble fraction (log2)” value is -0.0679.

Turning to “HMHSRLEDIPGIGPRRRAMLLRHFGGLAELKAAGVEEIARVEGINMALAQRLWRALHGVPDPT”, the “soluble fraction (log2)” value was -0.339.

For “HMHSVIALTIPADYAGLRLDQALAKLLPNWSRSRLQTWIAENRVILDGQITTIKQKVWGNELIQISPQD”, the “soluble fraction (log2)” value is -1.45. The same measure for “HMHTDQVLVMTRAVGQGEIVRNTDVGLTSVAVDRAVTTIPASQLDEIVGRHALVDLSAGQLLGSHSVGA”: 0.0253.

In the case of “HMHTNNALWAIADDMRARKDDGEFDTYREGYKWAANNIVKEGIHITAIKLEKAYHKAKSEGKV”, the “soluble fraction (log2)” value was -0.0602. Next, “HMHVSIAENIRRIRTQHDMTQEEFGKVAAVSAMAVSQWENGRAVPRMGAVQRIADYFNISKGEVID”: -0.543; “HMHWDIAQADAKQEVMDSSDDKEAIERIQANMFKDPKDHDQEYANKILNDMIDEIKEKGLEAMQHKFAQE”: -0.379. The same measure for “HMHYELTPDAEKQLSALGLTAELVERILEEANDRRPIPGTNRTVYSLHGYSVEFSNTNHKIVSVRKG”: -0.219; for “HMIAAPFVVKDIRVDGVQPATGEAIISSLPVKVGQTATDADVSNVVRQLFSLNRFQNVQATREGNTLVIKV”: 0.0499; for “HMIAGHLQIKNDYYYMVLSYTDSDGKRKQPWIPTGLPMKGNKKRAEKMLIETRQTYVPPVSSG”: -3.27.

For the sequence “HMIAIGDDARLDDAARFFRIAEDSYAAGDYRKSKENYIEARKLYAELGDHEKVNLINSKISAIDSIT”, the “soluble fraction (log2)” value stood at 0.0633. The same measure for “HMIAVIKPSATAEQKAGLVDWIRGQGIDVHISEGHDYTVLGLIGDTSKIDMDLIASLDIVDSVKRVA”: -0.0298. “HMIDAHTTLLAKRLESKGFLALTDKSSAEEIYEEFGISKKAFKKALGALYKERLVRIGEDGVVWM”: the “soluble fraction (log2)” value was -1.43.

Consider “HMIDDPTAVILRLVSEKQVIRRDDVVKALSVTPQKAYRLLKTMTTGGLLTRSGARRTTVYGLPDARER”, for which the “soluble fraction (log2)” value was -0.0945. Next, “HMIDEKVQAADKSIEIGNLSPLKGLVTDDEMHELEKLFEKVMALKDFEVNDVGAGRKYIEAYVSFFKFAEG”: -0.661; “HMIDELNVGDIRFYLNRYGKEIQIEIIRIGDDGSVYARTMADNALFRVPEARLKNIGEKVPAEEVQRG”: -0.742. Next, “HMIDFTHEDIERLWNAIVHYVPERQKSDMAIDFIKSLEDIGVEHDEIKASAEYDPKLEEAINTVY”: -0.352; “HMIDIDNLEKAAILLLSMGTEAAAKVMQKLSRDEVQRLISKMASLSGVSSIEAKWTLQQFFNQYREQSG”: -0.638; “HMIDLSELINKTGSAYTNLRPSGTAVIGDDRVDVVTEGTFVEKDRPVKVVAVEGQRVVVREVE”: 0.178. The same measure for “HMIDMQIDTARFGTLGVDDDKIITFPKGLPGFEDERRFFLMDHSGSSKIKWLHSADNPGLALV”: -0.0658; for “HMIDVGSKIRSLRKSKNISISTLAKNSDLSTGLISQIERNMVVPSIVAMWKISKALDINIGYFFE”: -2.42; for “HMIEDMQQYIKEIRQMVSGRLDMTRNLEDEEIRDTIAELVAEESRKQYMTLTEKREVIEGVFNSMR”: -0.0273. With “HMIEEIAVPEILGMQEEEAKAKIEGLGLVFNVTDRVKSNEYEKGEVMYQSVGPDDTTVKSGYPINVTISEG”, the “soluble fraction (log2)” value was -0.0543. Next, “HMIEEIPYSQFMSMLEEGKIDKAEIYQDSIIFSTKPDEQGKAGYYSIAYMKDNVLADRLYDAGVEFTPII”: -0.156; “HMIEGEQVRLLRLLERQEGGMLPLGDKSPASDILLLTGMSKKTFKMAVGALYKAQMITMTPTSIKLVK”: -0.684; “HMIEGETPEQTMERVSKDPEIVQILQDPVMQGILAQARENPAALQDHMKNPEVYKKINMLIAAGVIRT”: 0.0669. Next, “HMIEGSSDWKPNMILDDGGDLTKIIHEEYQDLLDDIRGLSEETTTGVLRLYEMEKENSLAVPAINVND”: 0.276. Next, “HMIEKGSDALEKELRKNNLSINEFLTNKNIDIILDELKLKDIDDLYVNIALGKYTPNQIIKIVNK”: 0.237. Consider “HMIELEGVISSVLAGTMFKVKLRGNGHEVLAHISGKMRKKFIRLVIGDAVKIEMSPYDMDKARIVYRI”, for which the “soluble fraction (log2)” value is -0.00875. Next, “HMIELTTDYKKRVVEALVSARENYSGSDSDFARKWSIDKTVYSRLKKGYQEGLLSVGKYIELGMELNVSSR”: -1.34; “HMIENITIELNKKALALDFELNKDLPEGVLETIPTLVSLMVRFDPLTVSYHFLRDYIDALLESNLNVDL”: -0.0273.

Regarding “HMIENMQEYVRHIRAAVSDRLDLTREVEDDEIREVISQIVAEESRQNYLSLGERQTVIETVFNSMR”, the “soluble fraction (log2)” value is -0.2.

As for “HMIERLVEFVHTLRHSGVRVSMAEAMDAAEALRHTPITERQIFKTALQSVLVKEHQDIPAFDAAFERFFL”, the “soluble fraction (log2)” value was -1.54.

As for “HMIESLKGILHKKDPTIAIIDVGGVRLSVNITLSTYEKLEEINSSIELLTYFNVREDAMELYG”, the “soluble fraction (log2)” value was -0.157.

With “HMIETIIGAEGKVLETIDNFNQKGVVALAGKEWTARSADASIIPEGAKVSVVEISGVKLIVTQN”, the “soluble fraction (log2)” value stood at 0.067.

Regarding “HMIETLGDATFKRLKAMILDGTLEPGTRLSEKKFADHLGVSRTPVREAIGQLVSEGLAKRSAGSAPVVSS”, the “soluble fraction (log2)” value stood at 0.0372. The same measure for “HMIFSIIPGQIRLTKMEIADGYLVLYGFTPSKEIYNLHLNPALKSIFTSSETSFIPVSGGLKFMSTNKL”: -1.78; for “HMIGAKVLVNGQLHRDSYGEGPGQTESNATRLVNYINMKGSHPYHVTTLDGGWRGWVTADSVQV”: 0.223.
